B1: Fission-yeast Wapl (natural protein, fission yeast, UniProt O94364 1-602, looked up)
chain: MKRGKCKEKDNGLKRISSESEVWNFLDVTVSELNKQKRSPGQTVSKRLHKKQRVVSNPDLSLPSSPVKQILRNGLQNSKYGSHKTGLERSASCSSIDASANHSSTTYREQRSYLMEEGLDTQPIVPREVSSGRELDSTNHTIGTERAFLIEEDVSEDDEIQMKSIHELRFAGEQQRIVDEIEYLVDGVTFSGNSSASRYLSLIGIAEKMFDNSFRLCLKSIRDVFLRIFEEIDPKDTLHTFLQIYIFATMANEMDCMSSLLDAYSNNVKLLLQTAITLEPQVPVSILAKSLPKSVKGAVQEFVIKAELTFSFSNESLASSDSISLAAIALMKTSSGVFAESELFTELINLLIEKSYPILKENDGSNNFLLHALCSSLEKFTDFQGSEKIQKVSQILSSKLQILIDEHNETNSPKIDDTVVHACSEKLLRTLIQTVNSNSDHALAVSKSEVPLFAYKILQKFSNFSSDDETTRELIILILGLLLGLVEESHEFIQTITHVEVSFGASALDVLISFYQKNESIVEISGYVVMILSHCFLNDPKAFAQLKPLISQFYESLHKFKNFHLKLKEELMMMGSNGLAIVSIIDELHKSLQDYLRSDLVK
notes: Wapl, cohesin subunit of fission yeast; GST was removed by protease; source: E. coli, purified (glutathione sepharose, heparin chromatography)
B2: Fission-yeast Psc3 (natural protein, fission yeast, UniProt O13816 1-962, looked up)
chain: MSESVTTGSDDDGGDRESSPVMLSQSFDPMSSSSNSSSEENSDDDYEKTISSKKRHPRPNSKGVNVKRSRRNAIVEEDPQEEIFNNLFAFLLDQKVDTMDIAVSWFADYAKDNQSALANLINFILKCCGCNRAINVFDVQDQDSASATLSQIQLSVERTSTRDYPLNSKNLKFRNFRKRLTGLLSNFVSQLSIRNYLYNSTVFEDIMSWVVAMSSSTMRPIRHTATVFCLNIMTFLCEKSKELLNEHAIATKQLEKEEKRSRVNRNRINELNNSLGEIVKQQDTLTTYLNDYFDSVFVHRYRDVEPKIRVDCLQELGVWINTVPSIFFSGSYLRYLGWMLSDINTTVRLTVVKVLRKFFETDSFIGGLRHFSSRFKERILEMSCVDADIGVRVASIRLCNAMRTCGFLENSEILKVLKLILDINPRVQREAVLFLCKVVDESVNEKIDLWGEEDYILKAFSQTSLTTFSVHWIKFSQMCKLLEEVRLSYQSSFDYDTLLRIFQKNGNFITPITQALLNACEIDSIYQSWEDISNFVLFDNYTSTLKDPIDSILSFCKLNDFQESILLQLLSASIQTVCNNNFITPKTVHNKQAAETTNDQNKDKDLLYLNLLPYINSITERNSASPTLLHDSLRLLFSMDLTEMTDPQLSRHFELLINNLKKFFLTNNDLQIIQGCTILFLRLDSIPALKEDLKLLVTDICDQTVTEFLKNFGSFNIQDAVITKDEFVIFEACLTRIEGCTSLKDFSDYPEFDIIYERLVSLLSRVPNSYEDTLKFSAINTLQSLLFWFFLRKDNPADEEKKKDDETKVFNCLINIMNNDSSKILQLQAARTFLETVIMKEGVKASHYNDDNRVSEEHNFLKPQFLDALLKILEGWLYTYAKVGQFPFKRLTQASSPHTQISLDKNPLNRRLLEHVCCDLTSKLLIVVSLSNTITPEFSQQFCELRGHYGPKLSAIVDEFLN
notes: Psc3 (Scc3), subunit of fission-yeast cohesin, as a separate protein; source: prepared and purified as described (Murayama and Uhlmann, 2014)
B3: Fission-yeast Pds5 (natural protein, fission yeast, UniProt Q9HFF5 1-1205, looked up)
chain: MIKLQFQRNIVPTHDNPLTTSEILKRLRDLLGELTSLSQDTIDRDSVLPVARSLVNNNLLHHKDKGIRSYTLCCIVELLRLCAPDAPFTLSQLEDIFQVILKILSGLMNQESTYYPQIYEILESLSNVKSAVLIVDLPNAEEFLVNIFRLFFDLARKGTTKNVEFYMLDIINQLINEINTIPAAALNILFAQLISGKGVRQTIGSSDSTNHGPAFQLARNIFHDSADRLQRYVCQYFSDIIFDSRDSLSDSMTTPEFIFSHNLVLQLWKYAPTTLLNIIPQFENELQAEQTSVRLVAIETVGLMLQDNAIWSDYPRVWSAFCGRLNDKSVACRIKCIEVASNALQNSLATSEIIENVVQMLQSKLADTDEKVRVATLKTIEQLTFETFKMQFSVQALKLMGDRLRDRKLNVRLQAIRTLSQIYNRAYQDLIDGVEYSIQMFSWIPSSLLEVFYVNDETTNAAVEICMAELVLQYLSSDTQTRLNRLFLSIKYFSEKAMRVFILLLQRQVKYSELLNYYIECCKNYNGGVMDNDEESITNKLKKVIDIISSKSSNPTLTEATFRKFAELNDRQSYKMLLQTFSIKSEYQVVLKSIKYLFKRVSETLSTASLECFRIFVYRSALFAFNKSNVHEIIQLLNEPVKYHNFLKPSEALLQHLPLIHPNIYGEVVIEVENIIVSSGIESDPKVIKALSQFSKRKKNFSIQTTTAEILRKLCLHGTQEQAKQAATIIAITETKEFKLDMITNIVENLEYNGGLPVRLMTLGQLFLYTLEEVEKVADQVTEFLVKKVIQRFPEKYDDTHNDEEWCTYEKLDNLTMCKVLAIRVLVNRLRAAAGGTEALNIGAPIIKLLKVLLMADGELSPFKNTPKISRAYLRLTASKYFLKLCSIPFYAEHIDFSSYVQISLLCQDENFDVRNLFLTKLQKQLQLKKLPISYYPLLFLTAVDPEEEIKTKASIWIRSQVAFFQKTHDFTMEYVATYLIHLLSHHPDISSIESENSLDFIAYIRFYVDTVVNSENVPIVFHLMQRIKQSYDVIEDGNNYIYVLSDMAQKILQVKSQNFGWSLTTYPKQIKLPYEILRPIPSIDEKKRIFNKIFITPKMESQIEHAIRTPVSSFAKQTTNKHANLKQKKTHSSKSDKKSSRRRKNEKRRKLNEQNPNIRNVPERSSSRFQGIRINYSEAPSSSEEISEEEEEISEEDFDEIEDL
notes: Pds5, cohesin subunit of fission yeast; Protein A was removed by protease; source: overexpressed in budding yeast, purified (IgG-agarose, Capto Q, gel filtration)

Legend:
Conditions in all cases: both partners purified
[1] = target: T1, Fission-yeast cohesin trimer (Psm1, Psm3 and Rad21) (fission yeast, UniProt O94383 1-1228; O42649 1-1194; P30776 1-628); experiment: co-IP; recombinant cohesin tetramer or trimer immunoprecipitated via Rad21-HA with Pds5 and Wapl both added; bound proteins by western blotting
T1 construct: Psm1 (Smc1), SMC subunit of fission-yeast cohesin; Psm3 (Smc3), SMC subunit of fission-yeast cohesin; Rad21, kleisin subunit of fission-yeast cohesin; Lacks Psc3; source: recombinant, purified (Murayama and Uhlmann, 2014); copies: + +

[2] = target: T2, Fission-yeast cohesin tetramer (Psm1, Psm3, Rad21 and Psc3) (fission yeast, UniProt O94383 1-1228; O42649 1-1194; P30776 1-628; O13816 1-962); experiment: as above
T2 construct: Psm1 (Smc1), SMC subunit of fission-yeast cohesin; Psm3 (Smc3), SMC subunit of fission-yeast cohesin; Rad21, kleisin subunit of fission-yeast cohesin; Psc3 (Scc3), subunit of fission-yeast cohesin; also called "4"; source: recombinant, purified as described (Murayama and Uhlmann, 2014); not shown: Pk, C-terminal, kept; copies: + + +

Fission-yeast Pds5 = target: B3; experiment: SEC; purified Pds5 and Wapl mixed in equimolar amounts and analysed by gel filtration; fractions by SDS-PAGE and silver staining
Mis4-Ssl3 cohesin loader = target: T3, Mis4-Ssl3 cohesin loader (fission yeast, UniProt Q09725 1-1587; O94459 1-559); experiment: co-IP; Psc3 immunoprecipitated; co-precipitation of the Psm1-Psm3 hinge and of the cohesin loader analysed
T3 construct: Mis4, subunit of the fission-yeast cohesin loader; Ssl3, subunit of the fission-yeast cohesin loader; also called MS; source: prepared and purified as described (Murayama and Uhlmann, 2014)

T1 sequence (O94383 whole entry, chain 1 of 3): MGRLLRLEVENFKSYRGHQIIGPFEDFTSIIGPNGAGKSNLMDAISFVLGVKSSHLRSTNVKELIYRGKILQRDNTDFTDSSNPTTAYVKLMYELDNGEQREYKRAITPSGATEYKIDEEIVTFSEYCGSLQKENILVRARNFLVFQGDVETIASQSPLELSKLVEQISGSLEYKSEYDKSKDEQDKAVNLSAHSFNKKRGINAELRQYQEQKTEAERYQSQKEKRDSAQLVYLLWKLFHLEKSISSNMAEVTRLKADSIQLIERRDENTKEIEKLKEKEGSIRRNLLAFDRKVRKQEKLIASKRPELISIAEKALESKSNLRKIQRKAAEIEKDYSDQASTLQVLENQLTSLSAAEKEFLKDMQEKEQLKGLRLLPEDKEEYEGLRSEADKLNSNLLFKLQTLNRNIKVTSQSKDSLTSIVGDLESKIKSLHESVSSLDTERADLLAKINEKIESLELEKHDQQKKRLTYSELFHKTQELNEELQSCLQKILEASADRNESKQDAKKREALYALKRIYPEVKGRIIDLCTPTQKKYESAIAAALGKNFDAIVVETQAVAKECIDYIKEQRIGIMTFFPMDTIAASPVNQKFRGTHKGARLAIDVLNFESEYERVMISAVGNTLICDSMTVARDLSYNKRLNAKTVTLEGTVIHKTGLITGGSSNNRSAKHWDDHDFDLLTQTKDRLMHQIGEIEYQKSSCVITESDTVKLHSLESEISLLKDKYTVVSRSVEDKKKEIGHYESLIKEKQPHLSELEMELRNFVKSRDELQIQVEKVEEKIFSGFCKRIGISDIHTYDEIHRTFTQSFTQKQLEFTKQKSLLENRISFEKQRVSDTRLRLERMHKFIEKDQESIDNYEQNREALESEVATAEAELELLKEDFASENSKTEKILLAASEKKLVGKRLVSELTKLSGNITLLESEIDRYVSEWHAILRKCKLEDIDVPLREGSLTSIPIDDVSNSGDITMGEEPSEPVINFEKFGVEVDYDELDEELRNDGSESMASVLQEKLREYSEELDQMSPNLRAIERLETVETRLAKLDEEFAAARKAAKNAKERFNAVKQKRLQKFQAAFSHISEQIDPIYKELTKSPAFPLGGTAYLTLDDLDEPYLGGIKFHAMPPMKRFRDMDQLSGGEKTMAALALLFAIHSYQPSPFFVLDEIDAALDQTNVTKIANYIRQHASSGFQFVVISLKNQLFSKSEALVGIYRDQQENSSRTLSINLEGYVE
T1 sequence (O42649 whole entry, chain 2 of 3): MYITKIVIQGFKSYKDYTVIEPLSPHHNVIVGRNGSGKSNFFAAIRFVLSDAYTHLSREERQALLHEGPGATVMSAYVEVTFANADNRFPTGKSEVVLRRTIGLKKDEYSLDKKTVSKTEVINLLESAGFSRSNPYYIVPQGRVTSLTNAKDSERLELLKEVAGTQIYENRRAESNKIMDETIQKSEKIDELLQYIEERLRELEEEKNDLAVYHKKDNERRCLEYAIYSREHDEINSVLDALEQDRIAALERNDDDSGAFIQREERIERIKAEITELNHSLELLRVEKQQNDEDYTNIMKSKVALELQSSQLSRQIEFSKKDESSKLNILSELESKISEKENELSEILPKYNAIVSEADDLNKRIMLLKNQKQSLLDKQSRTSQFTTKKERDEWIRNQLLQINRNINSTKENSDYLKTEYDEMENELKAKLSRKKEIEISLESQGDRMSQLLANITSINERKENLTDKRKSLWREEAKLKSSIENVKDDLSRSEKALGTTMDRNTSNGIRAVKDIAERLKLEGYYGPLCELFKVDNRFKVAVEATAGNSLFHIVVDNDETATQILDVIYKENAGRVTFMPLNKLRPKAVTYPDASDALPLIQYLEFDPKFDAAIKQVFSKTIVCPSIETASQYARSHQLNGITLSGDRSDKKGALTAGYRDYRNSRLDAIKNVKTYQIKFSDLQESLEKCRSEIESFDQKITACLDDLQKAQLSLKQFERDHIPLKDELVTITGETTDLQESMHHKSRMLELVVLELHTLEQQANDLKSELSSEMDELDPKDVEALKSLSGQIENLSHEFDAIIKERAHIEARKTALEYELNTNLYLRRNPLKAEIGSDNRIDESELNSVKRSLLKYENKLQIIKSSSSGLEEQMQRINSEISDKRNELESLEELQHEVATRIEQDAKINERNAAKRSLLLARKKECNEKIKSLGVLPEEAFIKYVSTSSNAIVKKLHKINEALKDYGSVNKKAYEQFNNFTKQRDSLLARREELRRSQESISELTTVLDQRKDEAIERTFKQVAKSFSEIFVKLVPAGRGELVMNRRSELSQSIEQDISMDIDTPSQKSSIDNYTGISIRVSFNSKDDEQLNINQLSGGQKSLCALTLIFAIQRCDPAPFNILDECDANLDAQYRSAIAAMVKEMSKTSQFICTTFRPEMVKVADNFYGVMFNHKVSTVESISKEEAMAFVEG
T1 sequence (P30776 whole entry, chain 3 of 3): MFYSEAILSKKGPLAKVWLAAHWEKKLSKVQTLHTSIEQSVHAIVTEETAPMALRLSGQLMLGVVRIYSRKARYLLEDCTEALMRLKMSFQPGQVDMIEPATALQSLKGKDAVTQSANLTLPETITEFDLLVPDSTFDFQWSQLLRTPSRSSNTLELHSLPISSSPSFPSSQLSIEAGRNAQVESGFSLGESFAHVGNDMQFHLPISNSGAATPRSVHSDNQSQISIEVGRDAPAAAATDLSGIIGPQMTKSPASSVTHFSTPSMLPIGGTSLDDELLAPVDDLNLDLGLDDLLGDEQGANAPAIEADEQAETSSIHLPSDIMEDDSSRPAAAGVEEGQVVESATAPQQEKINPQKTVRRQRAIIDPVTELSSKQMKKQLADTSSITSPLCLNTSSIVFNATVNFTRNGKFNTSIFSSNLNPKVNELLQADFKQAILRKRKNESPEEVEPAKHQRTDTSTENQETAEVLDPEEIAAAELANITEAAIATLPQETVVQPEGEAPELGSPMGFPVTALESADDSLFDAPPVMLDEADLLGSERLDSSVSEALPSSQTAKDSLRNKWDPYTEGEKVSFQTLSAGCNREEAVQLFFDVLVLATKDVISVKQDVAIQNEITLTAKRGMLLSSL
T2 sequence (O94383 whole entry, chain 1 of 3): as the sequence (O94383 whole entry, chain 1 of 3) above
T2 sequence (O42649 whole entry, chain 2 of 3): as the sequence (O42649 whole entry, chain 2 of 3) above
T2 sequence (P30776 whole entry, chain 3 of 3): as the sequence (P30776 whole entry, chain 3 of 3) above

Binder | binding result [1] | binding result [2] | binding result (Fission-yeast Pds5) | binding result (Mis4-Ssl3 cohesin loader)
B1 | binds | binds | binds | –
B2 | – | – | – | binds
B3 | binds | binds | – | –
